Results reported in patent US20160168268A1 (University of California, published 2016).

Target: T1, human IgE (human, UniProt P01854-1 1-428, FITC label in the BMMC experiments)
T1 construct: also called standard IgE; myeloma IgE
Experiment: method not stated

T1 sequence (P01854 other isoform, or with tags, fused parts or gaps): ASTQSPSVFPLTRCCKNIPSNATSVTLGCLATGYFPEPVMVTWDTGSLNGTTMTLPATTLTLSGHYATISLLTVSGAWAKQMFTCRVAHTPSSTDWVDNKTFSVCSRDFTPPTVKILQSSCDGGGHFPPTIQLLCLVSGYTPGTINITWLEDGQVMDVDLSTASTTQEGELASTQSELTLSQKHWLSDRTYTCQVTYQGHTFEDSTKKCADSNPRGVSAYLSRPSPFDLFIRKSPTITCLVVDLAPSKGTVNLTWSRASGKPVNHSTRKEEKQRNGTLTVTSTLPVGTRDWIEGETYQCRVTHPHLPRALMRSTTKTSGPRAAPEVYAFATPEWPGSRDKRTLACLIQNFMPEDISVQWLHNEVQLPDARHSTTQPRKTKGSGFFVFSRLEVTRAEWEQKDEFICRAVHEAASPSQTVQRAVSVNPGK

B1: monoclonal anti-human IgE antibody P6.2 (antibody, V domains shown)
VH: QVQLQQSGAELVRPGTSVKVSCKASGYAFTNYLIEWVKQRPGQGLEWIGVINPGSGFTKYNEKFKGKATLTADKSSSTAYMHLSSLTSDDSAVYFCAREDVYSWFAYWGQGTLVTVSA
VL: DIVLTQSPASLAVSLGQRATISCRASESVDSYGNSFMHWYQQKPGQPPKLLIYRTSNLESGIPARFSGSGSRTDFTLTINPVEADDVATYFCQQSYEDPFTFGSGTKLEIK
notes: also called mAb P6.2; mAb 6.2
- Kd: 2540 nM
